Reference: the RNAGym collection of RNA variant scans (doi:10.7554/elife.90254)

B1: LINE1-full (parent)
chain: UACGUAGGUGGUUUUCCCCUGAUAGUGCUAAGGGGGCCUGGAAGUUUGGACUGGGCAGAGCUCAACACAGCGUGGCAAAGUGGCUGUGGCUAGACUGCCUCUCUGGAUUCCUCGUCACUCAGCAGGGCAUCUCUGAGAGAAAUGCC

Variants of: B1
Assay: self-cleavage, relative activity (ratio to wild type); higher = more cleavage; in vitro, sequencing; the parent is a self-cleaving ribozyme

| Variant | self-cleavage |
| --- | --- |
| CACGUAGGUGGUUUUCCCCUGAUAGUGCUAAGGGGGCAUGGAAGUUUGGACUGGGCAGAGCUCAACACAGCGUGGCAAAGUGGCUGUGGCUAGACUGCCUCUCUGGAUUCCUCGUCACUCAGCAGGGCAUCUCUGAGAGAAAUGCC [U1C C38A] | 0.55 |
| CACGUAGGUGGUUUUCCCCUGAUAGUGCUAAGGGGGCUUGGAAGUUUGGACUGGGCAGAGCUCAACACAGCGUGGCAAAGUGGCUGUGGCUAGACUGCCUCUCUGGAUUCCUCGUCACUCAGCAGGGCAUCUCUGAGAGAAAUGCC [U1C C38U] | 0.71 |
| CACGUAGGUGGUUUUCCCCUGAUAGUGCUAAGGGGGCCUGGAAGUUUGGACUGGGUAGAGCUCAACACAGCGUGGCAAAGUGGCUGUGGCUAGACUGCCUCUCUGGAUUCCUCGUCACUCAGCAGGGCAUCUCUGAGAGAAAUGCC [U1C C56U] | 0.07 |
| CACGUAGGUGGUUUUCCCCUGAUAGUGCUAAGGGGGCCUGGAAGUUUGGACUGGGCAGAGCUCAACACAGCGUGGCAAAGUGGCUGUGGCUAGACUGCUUCUCUGGAUUCCUCGUCACUCAGCAGGGCAUCUCUGAGAGAAAUGCC [U1C C99U] | 0.24 |
| CACGUAGGUGGUUUUCCCCUGAUAGUGCUAAGGGGGCCUGGAAGUUUGGACUGGGCAGAGCUCAACACAGCGUGGCAAAGUGGCUGUGGCUAGACUGCCUCUUUGGAUUCCUCGUCACUCAGCAGGGCAUCUCUGAGAGAAAUGCC [U1C C103U] | 0.29 |
| CACGUAGGUGGUUUUCCCCUGAUAGUGCUAAGGGGGCCUGGAAGUUUGGACUGGGCAGAGCUCAACACAGCGUGGCAAAGUGGCUGUGGCUAGACUGCCUCUCUGGAUUCCUAGUCACUCAGCAGGGCAUCUCUGAGAGAAAUGCC [U1C C113A] | 0.62 |
| CACGUAGGUGGUUUUCCCCUGAUAGUGCUAAGGGGGCCUGGAAGUUUGGACUGGGCAGAGCUCAACACAGCGUGGCAAAGUGGCUGUGGCUAGACUGCCUCUCUGGAUUCCUCGUCACUCAGCAGGGAAUCUCUGAGAGAAAUGCC [U1C C128A] | 0.79 |
| CACUUAGGUGGUUUUCCCCUGAUAGUGCUAAGGGGGCCUGGAAGUUUGGACUGGGCAGAGCUCAACACAGCGUGGCAAAGUGGCUGUGGCUAGACUGCCUCUCUGGAUUCCUCGUCACUCAGCAGGGCAUCUCUGAGAGAAAUGCC [U1C G4U] | 0.78 |
| CACGUAAGUGGUUUUCCCCUGAUAGUGCUAAGGGGGCCUGGAAGUUUGGACUGGGCAGAGCUCAACACAGCGUGGCAAAGUGGCUGUGGCUAGACUGCCUCUCUGGAUUCCUCGUCACUCAGCAGGGCAUCUCUGAGAGAAAUGCC [U1C G7A] | 0.7 |
| CACGUAGGUAGUUUUCCCCUGAUAGUGCUAAGGGGGCCUGGAAGUUUGGACUGGGCAGAGCUCAACACAGCGUGGCAAAGUGGCUGUGGCUAGACUGCCUCUCUGGAUUCCUCGUCACUCAGCAGGGCAUCUCUGAGAGAAAUGCC [U1C G10A] | 0.95 |
| CACGUAGGUGGUUUUCCCCUGAUAAUGCUAAGGGGGCCUGGAAGUUUGGACUGGGCAGAGCUCAACACAGCGUGGCAAAGUGGCUGUGGCUAGACUGCCUCUCUGGAUUCCUCGUCACUCAGCAGGGCAUCUCUGAGAGAAAUGCC [U1C G25A] | 0.72 |
| CACGUAGGUGGUUUUCCCCUGAUAGUGCUAAGGAGGCCUGGAAGUUUGGACUGGGCAGAGCUCAACACAGCGUGGCAAAGUGGCUGUGGCUAGACUGCCUCUCUGGAUUCCUCGUCACUCAGCAGGGCAUCUCUGAGAGAAAUGCC [U1C G34A] | 0.75 |
| CACGUAGGUGGUUUUCCCCUGAUAGUGCUAAGGGAGCCUGGAAGUUUGGACUGGGCAGAGCUCAACACAGCGUGGCAAAGUGGCUGUGGCUAGACUGCCUCUCUGGAUUCCUCGUCACUCAGCAGGGCAUCUCUGAGAGAAAUGCC [U1C G35A] | 0.67 |
| CACGUAGGUGGUUUUCCCCUGAUAGUGCUAAGGGCGCCUGGAAGUUUGGACUGGGCAGAGCUCAACACAGCGUGGCAAAGUGGCUGUGGCUAGACUGCCUCUCUGGAUUCCUCGUCACUCAGCAGGGCAUCUCUGAGAGAAAUGCC [U1C G35C] | 1.26 |
| CACGUAGGUGGUUUUCCCCUGAUAGUGCUAAGGGGCCCUGGAAGUUUGGACUGGGCAGAGCUCAACACAGCGUGGCAAAGUGGCUGUGGCUAGACUGCCUCUCUGGAUUCCUCGUCACUCAGCAGGGCAUCUCUGAGAGAAAUGCC [U1C G36C] | 1.26 |
| CACGUAGGUGGUUUUCCCCUGAUAGUGCUAAGGGGGCCUGGAAGUUUGGACUGGGCAGAGCUCAACACAACGUGGCAAAGUGGCUGUGGCUAGACUGCCUCUCUGGAUUCCUCGUCACUCAGCAGGGCAUCUCUGAGAGAAAUGCC [U1C G70A] | 0.04 |
| CACGUAGGUGGUUUUCCCCUGAUAGUGCUAAGGGGGCCUGGAAGUUUGGACUGGGCAGAGCUCAACACAGCGUGGCAAAGUAGCUGUGGCUAGACUGCCUCUCUGGAUUCCUCGUCACUCAGCAGGGCAUCUCUGAGAGAAAUGCC [U1C G82A] | 1.3 |
| CACGUAGGUGGUUUUCCCCUGAUAGUGCUAAGGGGGCCUGGAAGUUUGGACUGGGCAGAGCUCAACACAGCGUGGCAAAGUGACUGUGGCUAGACUGCCUCUCUGGAUUCCUCGUCACUCAGCAGGGCAUCUCUGAGAGAAAUGCC [U1C G83A] | 0.74 |
| CACGUAGGUGGUUUUCCCCUGAUAGUGCUAAGGGGGCCUGGAAGUUUGGACUGGGCAGAGCUCAACACAGCGUGGCAAAGUGGCUAUGGCUAGACUGCCUCUCUGGAUUCCUCGUCACUCAGCAGGGCAUCUCUGAGAGAAAUGCC [U1C G86A] | 0.06 |
| CACGUAGGUGGUUUUCCCCUGAUAGUGCUAAGGGGGCCUGGAAGUUUGGACUGGGCAGAGCUCAACACAGCGUGGCAAAGUGGCUGUGGCUAAACUGCCUCUCUGGAUUCCUCGUCACUCAGCAGGGCAUCUCUGAGAGAAAUGCC [U1C G93A] | 0.09 |

| Variant | self-cleavage |
| --- | --- |
| CACGUAGGUGGUUUUCCCCUGAUAGUGCUAAGGGGGCCUGGAAGUUUGGACUGGGCAGAGCUCAACACAGCGUGGCAAAGUGGCUGUGGCUAGACUGCCUCUCUGGAUUCCUCCUCACUCAGCAGGGCAUCUCUGAGAGAAAUGCC [U1C G114C] | 2.19 |
| CACGUAGGUGGUUUUCCCCUGAUAGUGCUAAGGGGGCCUGGAAGUUUGGACUGGGCAGAGCUCAACACAGCGUGGCAAAGUGGCUGUGGCUAGACUGCCUCUCUGGAUUCCUCGUCACUCAGCAAGGCAUCUCUGAGAGAAAUGCC [U1C G125A] | 1.34 |
| CACGUAGGUGGCUUUCCCCUGAUAGUGCUAAGGGGGCCUGGAAGUUUGGACUGGGCAGAGCUCAACACAGCGUGGCAAAGUGGCUGUGGCUAGACUGCCUCUCUGGAUUCCUCGUCACUCAGCAGGGCAUCUCUGAGAGAAAUGCC [U1C U12C] | 0.78 |
| CACGUAGGUGGGUUUCCCCUGAUAGUGCUAAGGGGGCCUGGAAGUUUGGACUGGGCAGAGCUCAACACAGCGUGGCAAAGUGGCUGUGGCUAGACUGCCUCUCUGGAUUCCUCGUCACUCAGCAGGGCAUCUCUGAGAGAAAUGCC [U1C U12G] | 0.84 |
| CACGUAGGUGGUUAUCCCCUGAUAGUGCUAAGGGGGCCUGGAAGUUUGGACUGGGCAGAGCUCAACACAGCGUGGCAAAGUGGCUGUGGCUAGACUGCCUCUCUGGAUUCCUCGUCACUCAGCAGGGCAUCUCUGAGAGAAAUGCC [U1C U14A] | 0.81 |
| CACGUAGGUGGUUCUCCCCUGAUAGUGCUAAGGGGGCCUGGAAGUUUGGACUGGGCAGAGCUCAACACAGCGUGGCAAAGUGGCUGUGGCUAGACUGCCUCUCUGGAUUCCUCGUCACUCAGCAGGGCAUCUCUGAGAGAAAUGCC [U1C U14C] | 0.93 |
| CACGUAGGUGGUUUCCCCCUGAUAGUGCUAAGGGGGCCUGGAAGUUUGGACUGGGCAGAGCUCAACACAGCGUGGCAAAGUGGCUGUGGCUAGACUGCCUCUCUGGAUUCCUCGUCACUCAGCAGGGCAUCUCUGAGAGAAAUGCC [U1C U15C] | 0.92 |
| CACGUAGGUGGUUUUCCCCAGAUAGUGCUAAGGGGGCCUGGAAGUUUGGACUGGGCAGAGCUCAACACAGCGUGGCAAAGUGGCUGUGGCUAGACUGCCUCUCUGGAUUCCUCGUCACUCAGCAGGGCAUCUCUGAGAGAAAUGCC [U1C U20A] | 0.88 |
| CACGUAGGUGGUUUUCCCCUGAUAGAGCUAAGGGGGCCUGGAAGUUUGGACUGGGCAGAGCUCAACACAGCGUGGCAAAGUGGCUGUGGCUAGACUGCCUCUCUGGAUUCCUCGUCACUCAGCAGGGCAUCUCUGAGAGAAAUGCC [U1C U26A] | 0.53 |
| CACGUAGGUGGUUUUCCCCUGAUAGUGCCAAGGGGGCCUGGAAGUUUGGACUGGGCAGAGCUCAACACAGCGUGGCAAAGUGGCUGUGGCUAGACUGCCUCUCUGGAUUCCUCGUCACUCAGCAGGGCAUCUCUGAGAGAAAUGCC [U1C U29C] | 1.1 |
| CACGUAGGUGGUUUUCCCCUGAUAGUGCUAAGGGGGCCCGGAAGUUUGGACUGGGCAGAGCUCAACACAGCGUGGCAAAGUGGCUGUGGCUAGACUGCCUCUCUGGAUUCCUCGUCACUCAGCAGGGCAUCUCUGAGAGAAAUGCC [U1C U39C] | 0.95 |
| CACGUAGGUGGUUUUCCCCUGAUAGUGCUAAGGGGGCCUGGAAGAUUGGACUGGGCAGAGCUCAACACAGCGUGGCAAAGUGGCUGUGGCUAGACUGCCUCUCUGGAUUCCUCGUCACUCAGCAGGGCAUCUCUGAGAGAAAUGCC [U1C U45A] | 0.84 |
| CACGUAGGUGGUUUUCCCCUGAUAGUGCUAAGGGGGCCUGGAAGUUAGGACUGGGCAGAGCUCAACACAGCGUGGCAAAGUGGCUGUGGCUAGACUGCCUCUCUGGAUUCCUCGUCACUCAGCAGGGCAUCUCUGAGAGAAAUGCC [U1C U47A] | 0.6 |
| CACGUAGGUGGUUUUCCCCUGAUAGUGCUAAGGGGGCCUGGAAGUUCGGACUGGGCAGAGCUCAACACAGCGUGGCAAAGUGGCUGUGGCUAGACUGCCUCUCUGGAUUCCUCGUCACUCAGCAGGGCAUCUCUGAGAGAAAUGCC [U1C U47C] | 0.97 |
| CACGUAGGUGGUUUUCCCCUGAUAGUGCUAAGGGGGCCUGGAAGUUUGGACAGGGCAGAGCUCAACACAGCGUGGCAAAGUGGCUGUGGCUAGACUGCCUCUCUGGAUUCCUCGUCACUCAGCAGGGCAUCUCUGAGAGAAAUGCC [U1C U52A] | 0.88 |
| CACGUAGGUGGUUUUCCCCUGAUAGUGCUAAGGGGGCCUGGAAGUUUGGACUGGGCAGAGCACAACACAGCGUGGCAAAGUGGCUGUGGCUAGACUGCCUCUCUGGAUUCCUCGUCACUCAGCAGGGCAUCUCUGAGAGAAAUGCC [U1C U62A] | 0.05 |
| CACGUAGGUGGUUUUCCCCUGAUAGUGCUAAGGGGGCCUGGAAGUUUGGACUGGGCAGAGCCCAACACAGCGUGGCAAAGUGGCUGUGGCUAGACUGCCUCUCUGGAUUCCUCGUCACUCAGCAGGGCAUCUCUGAGAGAAAUGCC [U1C U62C] | 0.12 |
| CACGUAGGUGGUUUUCCCCUGAUAGUGCUAAGGGGGCCUGGAAGUUUGGACUGGGCAGAGCUCAACACAGCGUGGCAAAGCGGCUGUGGCUAGACUGCCUCUCUGGAUUCCUCGUCACUCAGCAGGGCAUCUCUGAGAGAAAUGCC [U1C U81C] | 0.85 |
| CACGUAGGUGGUUUUCCCCUGAUAGUGCUAAGGGGGCCUGGAAGUUUGGACUGGGCAGAGCUCAACACAGCGUGGCAAAGGGGCUGUGGCUAGACUGCCUCUCUGGAUUCCUCGUCACUCAGCAGGGCAUCUCUGAGAGAAAUGCC [U1C U81G] | 1.01 |
